Laboratory results from IntAct's records for PubMed 17959776.

B1: Acetylglutamate kinase (Synechococcus elongatus (strain PCC 7942)), Q6V1L5 (parent)
chain: MSSEFIEAGAADRVRILSEALPYLQQFAGRTVVVKYGGAAMKQEELKEAVMRDIVFLACVGMRPVVVHGGGPEINAWLGRVGIEPQFHNGLRVTDADTMEVVEMVLVGRVNKDIVSRINTTGGRAVGFCGTDGRLVLARPHDQEGIGFVGEVNSVNSEVIEPLLERGYIPVISSVAADENGQSFNINADTVAGEIAAALNAEKLILLTDTRGILEDPKRPESLIPRLNIPQSRELIAQGIVGGGMIPKVDCCIRSLAQGVRAAHIIDGRIPHALLLEIFTDAGIGTMIVGSGYHEAHQPWQ
B2: Nitrogen regulatory protein P-II (Synechococcus elongatus (strain PCC 7942)), P0A3F4 (parent)
chain: MKKIEAIIRPFKLDEVKIALVNAGIVGMTVSEVRGFGRQKGQTERYRGSEYTVEFLQKLKLEIVVEDAQVDTVIDKIVAAARTGEIGDGKIFVSPVDQTIRIRTGEKNADAI
partner: B1 chain

Variants of: B1
Details: with glnb_syne7 glnB, P0A3F4
MSSEFIEAGAADRVRILSEALPYLQQFAGRTVVVKYGGAAMKQEELKEAVMRDIVFLACVGMRPVVVHGGGPEINAWLGRVGIEPQFHNGLRVTDADTMEVVEMVLVGRVNKDIVSRINTTGGRAVGFCGTDGRLVLARPHDQEGIGFVGEVNSVNSEVIEPLLERGYIPVISSVAADENGQSFNINADTVAGEIAAALNAEKLILLTDTRGILEDPKRPESLIPRLNAPQSRELIAQGIVGGGMIPKVDCCIRSLAQGVRAAHIIDGRIPHALLLEIFTDAGIGTMIVGSGYHEAHQPWQ [I229A] was tested, and the “effect of a mutation on the interaction” value was “disrupting interaction”.
In the case of MSSEFIEAGAADRVRILSEALPYLQQFAGRTVVVKYGGAAMKQEELKEAVMRDIVFLACVGMRPVVVHGGGPEINAWLGRVGIEPQFHNGLRVTDADTMEVVEMVLVGRVNKDIVSRINTTGGRAVGFCGTDGRLVLARPHDQEGIGFVGEVNSVNSEVIEPLLERGYIPVISSVAADENGQSFNINADTVAGEIAAALNAEKLILLTDTRGILEDPKRPESLIPRLNIPQSRELIAQGIVGGGMIPKVDCCIRSAAQGVRAAHIIDGRIPHALLLEIFTDAGIGTMIVGSGYHEAHQPWQ [L256A], the “effect of a mutation on the interaction” value is reported as “disrupting interaction”.
For MSSEFIEAGAADRVRILSEALPYLQQFAGRTVVVKYGGAAMKQEELKEAVMRDIVFLACVGMRPVVVHGGGPEINAWLGRVGIEPQFHNGLRVTDADTMEVVEMVLVGRVNKDIVSRINTTGGRAVGFCGTDGRLVLAAPHDQEGIGFVGEVNSVNSEVIEPLLERGYIPVISSVAADENGQSFNINADTVAGEIAAALNAEKLILLTDTRGILEDPKRPESLIPRLNIPQSRELIAQGIVGGGMIPKVDCCIRSLAQGVRAAHIIDGRIPHALLLEIFTDAGIGTMIVGSGYHEAHQPWQ [R139A], the “effect of a mutation on the interaction” value was “disrupting interaction”.
For MSSEFIEAGAADRVRILSEALPYLQQFAGRTVVVKYGGAAMKQEELKEAVMRDIVFLACVGMRPVVVHGGGPEINAWLGRVGIEPQFHNGLRVTDADTMEVVEMVLVGRVNKDIVSRINTTGGRAVGFCGTDGRLVLARPHDQEGIGFVGEVNSVNSEVIEPLLERGYIPVISSVAADENGQSFNINADTVAGEIAAALNAEKLILLTDTRGILEDPKRPESLIPRLNIPQSAELIAQGIVGGGMIPKVDCCIRSLAQGVRAAHIIDGRIPHALLLEIFTDAGIGTMIVGSGYHEAHQPWQ [R233A], the “effect of a mutation on the interaction” value was “disrupting interaction”.
In the case of MSSEFIEAGAADRVRILSEALPYLQQFAGRTVVVKYGGAAMKQEELKEAVMRDIVFLACVGMRPVVVHGGGPEINAWLGRVGIEPQFHNGLRVTDADTMEVVEMVLVGRVNKDIVSRINTTGGRAVGFCGTDGRLVLARPHDQEGIGFVGEVNSVNSEVIEPLLERGYIPVISSVAADENGQSFNINADTVAGEIAAALNAEKLILLTDTRGILEDPKRPESLIPRLNIPQSRELIAQGIVGGGMIPKVDCCIRSLAAGVRAAHIIDGRIPHALLLEIFTDAGIGTMIVGSGYHEAHQPWQ [Q258A], the “effect of a mutation on the interaction” value is reported as “disrupting interaction”.
For MSSEFIEAGAADRVRILSEALPYLQQFAGRTVVVKYGGAAMKQEELKEAVMRDIVFLACVGMRPVVVHGGGPEINAWLGRVGIEPQFHNGLRVTDADTMEVVEMVLVGRVNKDIVSRINTTGGRAVGFCGTDGRLVLARPHDQEGIGFVGEVNSVNSEVIEPLLERGYIPVISSVAADENGQSFNINADTVAGEIAAALNAEKLILLTDTRGILEDPKRPESLIPRLNIPQSRELIAQGIVGGGMIPKVDCCIASLAQGVRAAHIIDGRIPHALLLEIFTDAGIGTMIVGSGYHEAHQPWQ [R254A], the “effect of a mutation on the interaction” value was “disrupting interaction”.

Variants of: B2
Details: with argb_syne7 argB, Q6V1L5
S49E was tested, and the “effect of a mutation on the interaction” value was “disrupting interaction strength”.
For S49D, the “effect of a mutation on the interaction” value was “disrupting interaction strength”.
In the case of S49A, the “effect of a mutation on the interaction” value is reported as “disrupting interaction strength”.
R45A was tested, and the “effect of a mutation on the interaction” value was “disrupting interaction”.
In the case of R47A, the “effect of a mutation on the interaction” value is reported as “disrupting interaction”.
In the case of Y46A, the “effect of a mutation on the interaction” value is reported as “disrupting interaction”.
For E85A, the “effect of a mutation on the interaction” value was “disrupting interaction”.
With F11A the “effect of a mutation on the interaction” value was “disrupting interaction”.

Variants of: B2
Details: with argb_syne7 argB
With S49D the “effect of a mutation on the interaction” value was “disrupting interaction”.
